{"source": "paper PMC11417211", "key": {"[1]": {"target": "elastase from porcine pancreas (porcine) (UniProt P00772)", "sequence (P00772 27-266)": "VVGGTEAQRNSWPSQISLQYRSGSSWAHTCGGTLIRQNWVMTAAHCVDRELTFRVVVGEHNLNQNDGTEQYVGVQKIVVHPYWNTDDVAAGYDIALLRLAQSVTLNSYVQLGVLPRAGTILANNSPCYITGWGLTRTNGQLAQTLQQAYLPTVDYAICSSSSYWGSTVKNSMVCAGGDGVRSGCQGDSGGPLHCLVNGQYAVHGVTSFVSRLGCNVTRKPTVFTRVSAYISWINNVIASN"}, "[2]": {"target": "Cathepsin G from human leukocytes (human) (UniProt P08311)", "sequence (P08311 21-244)": "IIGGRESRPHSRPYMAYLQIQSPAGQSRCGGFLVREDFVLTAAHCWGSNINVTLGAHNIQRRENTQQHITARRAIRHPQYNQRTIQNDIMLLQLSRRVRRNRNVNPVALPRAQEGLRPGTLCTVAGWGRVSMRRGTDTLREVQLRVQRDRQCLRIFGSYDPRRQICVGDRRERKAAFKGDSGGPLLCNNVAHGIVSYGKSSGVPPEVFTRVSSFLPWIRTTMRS"}, "[3]": {"target": "α-chymotrypsin from bovine pancreas (bovine)"}}, "data": [{"substance": "E. coli expressed Hyalomma anatolicum serpin-1 (eHAMpin-1) (natural protein)", "values": [{"measurement": "decrease of the proteolytic activity of the protease (100 nM) after preincubation with 1 μM eHAMpin-1 for 30 min at 37 °C; chromogenic substrate", "setting": "[1]", "value": "> 45", "unit": "%"}, {"measurement": "decrease of the proteolytic activity of the protease (110 nM) after preincubation with 1 μM eHAMpin-1 for 30 min at 37 °C; chromogenic substrate", "setting": "[2]", "value": "> 90", "unit": "%"}, {"measurement": "decrease of the proteolytic activity of the protease (96 nM) after preincubation with 1 μM eHAMpin-1 for 30 min at 37 °C; chromogenic substrate", "setting": "[3]", "value": "> 90", "unit": "%"}]}]}
